In patent US7351555B2, “Mouse cytokine receptor Zcytor16” (ZymoGenetics, Inc., priority 2001, dated 2008):

Key:
[1] = K-562 cytotoxicity assay (MTT); type: cell-based, human; conditions: human, K-562 cells, 100 uM
Description: The K-562 cell line (CRL-243, ATCC) has attained widespread use as a highly sensitive in vitro target for cytotoxicity assays. K-562 blasts are multipotential, hematopoietic malignant cells that spontaneously differentiate into recognizable progenitors of the erythrocytic, granulocytic and monocytic series (Lozzio, B B et al., Proc. Soc. Exp. Biol. Med. 166: 546-550, 1981).
K562 cells were plated at 5,000 cells/well in 96-well tissue culture clusters (Costar) in DMEM phenol-free growth medium (Life Technologies) supplemented with pyruvate and 10% serum (HyClone). Next day, human recombinant IL-TIF (Example 19), BSA control or retinoic acid (known to be cytotoxic to K562 cells) were added. Seventy-two hours later, the vital stain MTT (Sigma, St Louis, Mo.), a widely used indicator of mitochondrial activity and cell growth, was added to the cells at a final concentration of 0.5 mg/ml. […] is converted to a purple formazan derivative by mitochondrial dehydrogenases. Four hours later, converted MMP was solubilized by adding an equal volume of acidic, isopropanol (0.04N HCl in absolute isopropanol) to the wells. Absorbance was measured at 570 nm, with background subtraction at 650 nm. In this experimental setting, absorbance reflects cell viability. Results shown in Table 12 are expressed as % cytotoxicity.

[2] = target: T1, IL-TIF (Homo sapiens, UniProt Q9GZX6); assay: Inhibition of IL-TIF reporter activation in MES 13 cells by Zcytor16-Fc4; type: cell-based; conditions: for LU w/10 μg/ml zcytoR16: zcytoR16 10 μg/ml
T1 sequence (Q9GZX6 34-179): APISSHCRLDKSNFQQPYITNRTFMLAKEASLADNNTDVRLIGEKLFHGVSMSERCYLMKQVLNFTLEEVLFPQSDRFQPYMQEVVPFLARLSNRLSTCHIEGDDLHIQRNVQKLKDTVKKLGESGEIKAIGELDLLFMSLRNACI
Description: MES 13 cells (ATCC No. CRL-1927) were plated at 10,000 cells/well in 96-well tissue culture clusters (Costar) in DMEM growth medium (Life Technologies) supplemented with pyruvate and 10% serum (HyClone). Next day, the medium was switched to serum free DMEM medium by substituting 0.1% BSA (Fraction V; Sigma) for serum. This medium also contained the adenoviral construct KZ136 (below) that encodes a luciferase reporter mini-gene driven by SRE and STAT elements, at a 1000:1 multiplicity of infection (m.o.i.), i.e. 1000 adenoviral particles per cell. After allowing 24 h for the incorporation of the adenoviral construct in the cells, the media were changed and replaced with serum-free media. Human recombinant IL-TIF with or without a recombinant Zcytor16-Fc4 fusion was added at the indicated final concentration in the well (as described in Table 11, below). Dilutions of both the IL-TIF and Zcytor16-Fc4 were performed in serum-free medium. 0.1% BSA was added for a basal assay control. 4 h later, cells were lysed and luciferase activity, denoting activation of the reporter gene, was determined in the lysate using an Luciferase Assay System assay kit (Promega) and a Labsystems Luminoskan luminometer (Labsystems, Helsinki, Finland). Activity was expressed as luciferase units (LU) in the lysate.
The construction of the adenoviral KZ136 vector was as follows. The original KZ136 vector is disclosed in Poulsen, L K et al. J. Biol. Chem. 273:6228-6232, 1998. The CMV promoter/enhancer and SV40 pA sequences were removed from pACCMV.pLpA (T. C. Becker et al., […] 43:161-189, 1994.) and replaced with a linker containing Asp718/KpnI and HindIII sites (oligos ZC13252 (SEQ ID NO:26) and ZC13453 (SEQ ID NO:27)). The STAT/SRE driven luciferase reporter cassette was exised from vector KZ136 (Poulsen, L K et al., supra.).) as a Asp718/KpnI-HindIII fragment and inserted into the adapted pAC vector. Recombinant KZ136 Adenovirus was produced by transfection with JM17 Adenovirus into 293 cells as described in T. C. Becker et al. supra.). Plaque purified virus was amplified and used to infect cultured cells at 5-50 pfu/cell 12-48 hours before assay. Luciferase reporter assays were performed as described in 96 well microplates as per Poulsen, L K et al., supra.).

[3] = target: T1, IL-TIF; assay: COS cell secretion trap binding of Zcytor16sR/Fc4 to Class II cytokines; design: expressed in transfected cells; host or cells: COS cells; conditions: 1-3 μg/ml Zcytor16sR-Fc4; COS cells transfected with IL-TIF cDNA
Description: COS cell transfections were performed as follows: A mixture of 0.5 μg DNA and 5 μl lipofectamine (Gibco BRL) in 92 ul serum free DMEM media (55 mg sodium pyruvate, 146 mg L-glutamine, 5 mg transferrin, 2.5 mg insulin, 1 μg selenium and 5 mg fetuin in 500 ml DMEM) was incubated at room temperature for 30 minutes and then 400 μl serum free DMEM media added. A 500 μl mixture was added onto COS cells plated on 12-well tissue culture plate at 1.5×10^5 COS cells/well and previously incubated for 5 hours at 37° C. An additional 500 μl 20% FBS DMEM media (100 ml FBS, 55 mg sodium pyruvate and 146 mg L-glutamine in 500 ml DMEM) was added and the plates were incubated overnight.
The secretion trap was performed as follows: Media was rinsed off cells with PBS and fixed for 15 minutes with 1.8% Formaldehyde in PBS. Cells were then washed with TNT (0.1M Tris-HCl, 0.15M NaCl, and 0.05% Tween-20 in H2O). Cells were permeated with 0.1% Triton-X in PBS for 15 minutes and washed again with TNT. […]

[4] = target: T1, IL-TIF; assay: IL-TIF antagonist activity in BaF3/CRF2-4/zcytor11 Alamar Blue proliferation assay; type: cell-based; design: the coding region. for human IL-TIF, without its stop codon; made in house; host or cells: BHK 570 cells; conditions: Zcytor16 at 10 μg/ml; IL-TIF at all concentrations (0.06-50 ng/ml)
From the text: Purified human IL-TIF-CEE (Example 19) was used to test for the presence of proliferation activity as described below. Purified humsn Zcytor16-Fc4 (Example 11) was used to antagonize the proliferative response of the IL-TIF in this assay as described below.
BaF3/CRF2-4/zcytor11 cells were spun down and washed in the complete media, described in Example 7A above, but without mIL-3 (hereinafter referred to as “mIL-3 free media”). The cells were spun and washed 3 times to ensure the removal of the mIL-3. Cells were then counted in a hemacytometer. Cells were plated in a 96-well format at 5000 cells per well in a volume of 100 μl per well using the mIL-3 free media.
Proliferation of the BaF3/CRF2-4/zcytor11 cells was assessed using IL-TIF-CEE protein diluted with mIL-3 free media to 50, 10, 2, 1, 0.5, 0.25, 0.13, 0.06 ng/ml concentrations. 100 μl of the diluted protein was added to the BaF3/CRF2-4/zcytor11 cells. […] Alamar Blue gives a fluourometric readout based on number of live cells, and is thus a direct measurement of cell proliferation in comparison to a negative control. […] Plates were read on the Fmax™ plate reader (Molecular Devices Sunnyvale, Calif.) using the SoftMax™ Pro program, at wavelengths 544 (Excitation) and 590 (Emmission). […] The response, as measured, was approximately 15-fold over background at the high end of 50 ng/ml down to a 2-fold induction at the low end of 0.06 ng/ml. […]

Row | LU w/10 μg/ml zcytoR16 ([2]; IL-TIF 0 ng/ml (basal BSA control)) | LU w/10 μg/ml zcytoR16 ([2]; IL-TIF 0.03 ng/ml) | LU w/10 μg/ml zcytoR16 ([2]; IL-TIF 0.3 ng/ml) | LU w/10 μg/ml zcytoR16 ([2]; IL-TIF 3 ng/ml) | LU w/10 μg/ml zcytoR16 ([2]; IL-TIF 30 ng/ml) | LU w/10 μg/ml zcytoR16 ([2]; IL-TIF 300 ng/ml) | binding of Zcytor16sR/Fc4 to cytokine-transfected COS cells [3] | response to IL-TIF in presence of Zcytor16 [4] | Molecule | cytotoxicity at 72 h, 100 µM [1] | antagonism of the response to IL-TIF ([2]; even at the highest dose of IL-TIF used)
1 | – | – | – | – | – | – | – | – | CC1=C(/C=C/C(C)=C/C=C/C(C)=C/C(=O)O)C(C)(C)CCC1 [Retinoic acid, reference compound] | 62% | –
2 | 104 ± 2 LU | 104 ± 4 LU | 99 ± 6 LU | 98 ± 15 LU | 110 ± 3 LU | 112 ± 30 LU | positive binding | brought down to background | Zcytor16sR/Fc4: soluble human Zcytor16 polypeptide (residue 22 to 231 of SEQ ID NO:2) fused to a C-terminal Fc4 tag (protein) TQSTHESLKPQRVQFQSRNFHNILQWQPGRALTGNSSVYFVQYKIYGQRQWKNKEDCWGTQELSCDLTSETSDIQEPYYGRVRAASAGSYSEWSMTPRFTPWWETKIDPPVMNITQVNGSLLVILHAPNLPYRYQKEKNVSIEDYYELLYRVFIINNSLEKEQKVYEGAHRAVEIEALTPHSSYCVVAEIYQPMLDRRSQRSEERCVEIPEPRSSDKTHTCPPCPAPEAEGAPSVFLFPPKPKDTLMISRTPEVTCVVVDVSHEDPEVKFNWYVDGVEVHNAKTKPREEQYNSTYRVVSVLTVLHQDWLNGKEYKCKVSNKALPSSIEKTISKAKGQPREPQVYTLPPSRDELTKNQVSLTCLVKGFYPSDIAVEWESNGQPENNYKTTPPVLDSDGSFFLYSKLTVDKSRWQQGNVFSCSVMHEALHNHYTQKSLSLSPGK | – | effectively blocks the response to IL-TIF
